Results from publication PMC10878242.

Target: mAb-1E7
Experiment: SPR; Biacore 8K; mAb-1E7 immobilized on a Protein G chip; PCV2-Cap or Nb61 injected at 30 µL/min, 1.5625 to 25 nM; 10 mM HEPES pH 7.4, 150 mM NaCl, 3 mM EDTA, 0.05% Tween 20

Sequence of mAb-1E7 (heavy, as listed by the source, chain 1 of 2): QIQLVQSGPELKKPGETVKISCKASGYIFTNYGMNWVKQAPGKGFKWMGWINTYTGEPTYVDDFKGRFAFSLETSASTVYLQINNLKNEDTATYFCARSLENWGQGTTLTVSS
Sequence of mAb-1E7 (light, as listed by the source, chain 2 of 2): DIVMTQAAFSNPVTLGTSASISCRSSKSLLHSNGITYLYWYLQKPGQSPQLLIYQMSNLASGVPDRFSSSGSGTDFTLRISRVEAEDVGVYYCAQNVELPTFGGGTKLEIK

B1: Nb61 (VHH)
VHH: QVQLQESGGGSVQAGGSLRLSCAGSDFPYCSYDMSWYRQAPGKEREFVSGIDRDGTIRYADAVKGRFTISQGDAKNTLYLQMNSLKPEDTAMYYCKTTPRNYNDFLGCVDYWGQGTQVTVSS
Kd: 12 nM
koff: 0.0222 s⁻¹
kon: 1.86e+06 M⁻¹ s⁻¹
